Measurements reported in patent publication EP1287147B1.

Key:
[1] = biological target: human CD3 (CD3 epsilon of the T-cell receptor complex) on Jurkat cells (human) (UniProt P07766); test: competition with 125I-UCHT1 tracer on Jurkat cells; competitor at 100 nM
[2] = biological target: human CD3 (CD3 epsilon of the T-cell receptor complex) on Jurkat cells (human) (UniProt P07766); test: competition with 125I-UCHT1 tracer on Jurkat cells; competitor at 1 nM
[3] = biological target: human CD3 (CD3 epsilon of the T-cell receptor complex) on Jurkat cells (human) (UniProt P07766); test: cell-based or functional assay

Row | Substance | % of 125I-UCHT1 tracer bound (% of tracer bound without competitor) [1] | % of 125I-UCHT1 tracer bound (% of tracer bound without competitor) [2] | ratio of IC50 of sFv-DT390 to IC50 of UCHT1-CRM9 [3] [fold]
1 | UCHT1 monoclonal antibody (murine anti-human CD3, IgG1) | 0 | 80 | 
2 | sFv-DT390 (DT390-sFv(UCHT1'), anti-CD3 single-chain immunotoxin with truncated diphtheria toxin) |  |  | 16
3 | scUCHT1 (divalent chimeric anti-human CD3 single chain antibody, UCHT1 VL-linker-VH fused to human IgM Fc CH2-CH4) (Fc fusion) | 0 | 80 | 
